Data: article PMC4429812 (Biochemistry, 2015)
Values joined by “and” are separate entries in the source; they are usually repeats but may differ in a detail not shown here. Equal values may be shown once.

How the values were obtained:
[1] = target: amphiphysin clathrin-box peptide clathrin-box peptide (UniProt P49418); details: cited from earlier work
[2] = target: T1, clathrin N-terminal domain (TD) of the clathrin heavy chain, bovine, residues 1-363 (bovine, UniProt P49951 1-363); assay: NMR titration
T1 sequence (looked up): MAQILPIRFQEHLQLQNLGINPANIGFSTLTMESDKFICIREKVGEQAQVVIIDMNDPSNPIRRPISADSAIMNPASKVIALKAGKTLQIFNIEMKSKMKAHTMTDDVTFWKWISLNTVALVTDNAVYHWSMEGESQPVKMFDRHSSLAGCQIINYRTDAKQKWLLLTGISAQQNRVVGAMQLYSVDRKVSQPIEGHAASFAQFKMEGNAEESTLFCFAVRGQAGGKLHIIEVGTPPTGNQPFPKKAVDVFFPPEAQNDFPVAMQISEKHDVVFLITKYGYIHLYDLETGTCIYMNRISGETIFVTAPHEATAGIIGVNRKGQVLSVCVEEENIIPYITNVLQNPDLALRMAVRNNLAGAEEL

[3] = target: T1, clathrin N-terminal domain (TD) of the …; assay: ITC

Sequence of amphiphysin clathrin-box peptide clathrin-box peptide (P49418 whole entry, looked up, the tested form may be a part): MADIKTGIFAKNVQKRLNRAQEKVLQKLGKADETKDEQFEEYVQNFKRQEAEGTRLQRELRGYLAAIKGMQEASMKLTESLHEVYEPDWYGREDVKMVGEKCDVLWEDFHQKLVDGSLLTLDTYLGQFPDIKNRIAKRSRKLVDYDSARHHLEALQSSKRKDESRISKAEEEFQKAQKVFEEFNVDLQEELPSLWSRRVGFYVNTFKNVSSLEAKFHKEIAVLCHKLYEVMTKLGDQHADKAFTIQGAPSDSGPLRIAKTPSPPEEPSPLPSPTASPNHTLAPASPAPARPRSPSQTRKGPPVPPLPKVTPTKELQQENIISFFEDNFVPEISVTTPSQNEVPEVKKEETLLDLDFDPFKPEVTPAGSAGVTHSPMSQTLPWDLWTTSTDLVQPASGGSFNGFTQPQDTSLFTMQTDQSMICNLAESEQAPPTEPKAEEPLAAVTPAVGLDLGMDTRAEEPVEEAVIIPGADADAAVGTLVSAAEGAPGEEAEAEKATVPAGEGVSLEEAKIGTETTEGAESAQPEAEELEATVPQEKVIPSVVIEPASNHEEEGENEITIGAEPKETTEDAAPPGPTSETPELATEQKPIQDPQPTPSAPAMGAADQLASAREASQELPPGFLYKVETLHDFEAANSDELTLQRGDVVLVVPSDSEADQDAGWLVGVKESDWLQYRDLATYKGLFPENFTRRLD

| Molecule | Kd [1] [µM] | Kd [2] [µM] | stoichiometry N [2] | Kd [3] | dH [3] [kcal/mol] | stoichiometry N [3] |
| --- | --- | --- | --- | --- | --- | --- |
| clathrin heavy chain N-terminal domain (from UniProt P49951) | 22 | – | – | – | – | – |
| CPQAVASSSASADLLAGFGGSFMAPS [AP180 peptide 2 (residues 655-679 of mouse AP180)] | – | 899 ± 529 | 3.7 ± 0.6 | – | – | – |
| CQVIPSQGDLLGDLLNLDLGPPVNVPQ [AP2 peptide (clathrin-box peptide from the hinge of the AP2 β2 subunit, residues 619-644)] | – | 867 ± 246 | 2.6 ± 0.4 | 420 µM and 474 µM | -2.8 | 3.01 and 3 |
| CSPAKAESSGVIDLFGDAFGSGASETQ [AP180 peptide 1 (residues 627-652 of mouse AP180)] | – | 829 ± 221 | 3.9 ± 0.3 | – | – | – |
